Data from PMC9078203.
Where two headings read alike, the source gives them in different places.

Columns and labels:
[1] = biological target: DIP-α K81Q (D. melanogaster) (UniProt Q9W4R3); assay: AUC
DIP-α (D. melanogaster) [2] = biological target: DIP-α (D. melanogaster) (UniProt Q9W4R3); assay: SPR
DIP-α (D. melanogaster) [3] = biological target: DIP-α (D. melanogaster) (UniProt Q9W4R3); assay: SPR; remark: listed apart in the source
[4] = biological target: DIP-α G74A (D. melanogaster) (UniProt Q9W4R3); assay: AUC
[5] = biological target: DIP-α G74A (D. melanogaster) (UniProt Q9W4R3); assay: SPR
[6] = biological target: DIP-α K81Q (D. melanogaster) (UniProt Q9W4R3); assay: SPR
[7] = biological target: DIP-α K81Q G74S (D. melanogaster) (UniProt Q9W4R3); assay: SPR
DIP-β (D. melanogaster) = assay: SPR
DIP-γ (D. melanogaster) = assay: SPR
[8] = biological target: DIP-α K81Q G74S (D. melanogaster) (UniProt Q9W4R3); assay: AUC

“DIP-α K81Q (from UniProt Q9W4R3 1-554) (natural protein)” gave a Kd [1] of 19.6 µM and a stoichiometry N [1] of 2.

In the case of “Dpr10 Q138D (from UniProt Q9VT83 1-408) (natural protein)”, the Kd (DIP-α (D. melanogaster) [2]) is reported as 27.6 µM and the Kd (DIP-α (D. melanogaster) [3]) is reported as 27.8 µM.

With “DIP-α G74A (from UniProt Q9W4R3 1-554) (natural protein)” the Kd [4] was 50 µM and the stoichiometry N [4] was 2.

In the case of “Dpr10 V144K Q142E G99D (from UniProt Q9VT83 1-408) (natural protein)”, the Kd (DIP-α (D. melanogaster) [2]) is reported as 50 µM.

“Dpr10 (from UniProt Q9VT83 1-408) (natural protein)” gave a Kd [5] of 0.9 µM, a Kd [6] of 31.8 µM and a Kd [7] of 68 µM. It also gave a Kd (DIP-β (D. melanogaster)) of 33 µM and a Kd (DIP-γ (D. melanogaster)) of over 1000 µM.

“DIP-α K81Q G74S (from UniProt Q9W4R3 1-554) (natural protein)” showed a Kd [8] of 46 µM and a stoichiometry N [8] of 2.

Work on “Dpr10 V144K (from UniProt Q9VT83 1-408) (natural protein)” yielded a Kd (DIP-α (D. melanogaster) [2]) of 11.3 µM.

In the case of “Dpr10 Q142M (from UniProt Q9VT83 1-408) (natural protein)”, the Kd (DIP-α (D. melanogaster) [2]) is reported as 0.19 µM and the Kd [5] is reported as 0.1 µM.
